What was measured:
Format in all cases: biochemical
[1] = carboxylate reductase activity: pimelate to pimelate semialdehyde (NADPH consumption, A340); settings: purified enzyme enhanced by sfp gene product, 2 mM pimelate, pH 7.5, room temperature, 20 min; against the empty vector control (FIG. 8)
Description: A nucleotide sequence encoding a HIS-tag was added to the nucleic acid sequences from Segniliparus rugosus and Segniliparus rotundus that encode the carboxylate reductases of SEQ ID NOs: 4 (EFV11917.1) and 6 (ADG98140.1), respectively (see FIG. 6), such that N-terminal HIS tagged carboxylate reductases could be produced. Each of the modified genes was cloned into a pET Duet expression vector along with a sfp gene encoding a HIS-tagged phosphopantetheine transferase from Bacillus subtilis, both under the T7 promoter. Each expression vector was transformed into a BL21[DE3] E. coli host and the resulting recombinant E. coli strains were cultivated at 37° C. in a 250 mL shake flask culture containing 50 mL LB media and antibiotic selection pressure, with shaking at 230 rpm. Each culture was induced overnight at 37° C. using an auto-induction media.
The pellet from each induced shake flask culture was harvested via centrifugation. Each pellet was resuspended and lysed via sonication, and the cell debris was separated from the supernatant via centrifugation. […]
Enzyme activity assays (i.e., from pimelate to pimelate semialdehyde) were performed in triplicate in a buffer composed of a final concentration of 50 mM HEPES buffer (pH=7.5), 2 mM pimelate, 10 mM MgCl2, 1 mM ATP and 1 mM NADPH. […] The consumption of NADPH was monitored by absorbance at 340 nm. […]

[2] = carboxylate reductase activity: N7-acetyl-7-aminoheptanoate to N7-acetyl-7-aminoheptanal (NADPH consumption, A340); settings: purified enzyme enhanced by sfp gene product, 2 mM N7-acetyl-7-aminoheptanoate, pH 7.5, room temperature, 20 min; against the empty vector control (FIG. 10)
Description: The activity of each of the N-terminal His-tagged carboxylate reductases of SEQ ID NOs: 3, 5, and 6 (see Examples 2 and 3, and FIG. 6) for converting N7-acetyl-7-aminoheptanoate to N7-acetyl-7-aminoheptanal was assayed in triplicate in a buffer composed of a final concentration of 50 mM HEPES buffer (pH=7.5), 2 mM N7-acetyl-7-aminoheptanoate, 10 mM MgCl2, 1 mM ATP, and 1 mM NADPH. The assays were initiated by adding purified carboxylate reductase and phosphopantetheine transferase or the empty vector control to the assay buffer containing the N7-acetyl-7-aminoheptanoate then incubated at room temperature for 20 min. The consumption of NADPH was monitored by absorbance at 340 nm.

[3] = carboxylate reductase activity: pimelate semialdehyde to heptanedial (NADPH consumption, A340); settings: purified enzyme enhanced by sfp gene product, 2 mM pimelate semialdehyde, pH 7.5, room temperature, 20 min; against the empty vector control (FIG. 11)
Description: The N-terminal His-tagged carboxylate reductase of SEQ ID NO: 6 (see Example 3 and FIG. 6) was assayed using pimelate semialdehyde as substrate. The enzyme activity assay was performed in triplicate in a buffer composed of a final concentration of 50 mM HEPES buffer (pH=7.5), 2 mM pimelate semialdehyde, 10 mM MgCl2, 1 mM ATP and 1 mM NADPH. The enzyme activity assay reaction was initiated by adding purified carboxylate reductase and phosphopantetheine transferase or the empty vector control to the assay buffer containing the pimelate semialdehyde and then incubated at room temperature for 20 min. The consumption of NADPH was monitored by absorbance at 340 nm.

B1: SEQ ID NO: 6: Segniliparus rotundus carboxylate reductase, N-terminal HIS tagged (protein, listed as Segniliparus rotundus)
chain: MTQSHTQGPQASAAHSRLARRAAELLATDPQAAATLPDPEVVRQATRPGLRLAERVDAILSGYADRPALGQRSFQTVKDPITGRSSVELLPTFDTITYRELRERATAIASDLAHHPQAPAKPGDFLASIGFISVDYVAIDIAGVFAGLTAVPLQTGATLATLTAITAETAPTLFAASIEHLPTAVDAVLATPSVRRLLVFDYRAGSDEDREAVEAAKRKIADAGSSVLVDVLDEVIARGKSAPKAPLPPATDAGDDSLSLLIYTSGSTGTPKGAMYPERNVAHFWGGVWAAAFDEDAAPPVPAINITFLPLSHVASRLSLMPTLARGGLMHFVAKSDLSTLFEDLKLARPTNLFLVPRVVEMLYQHYQSELDRRGVQDGTREAEAVKDDLRTGLLGGRILTAGFGSAPLSAELAGFIESLLQIHLVDGYGSTEAGPVWRDGYLVKPPVTDYKLIDVPELGYFSTDSPHPRGELAIKTQTILPGYYKRPETTAEVFDEDGFYLTGDVVAQIGPEQFAYVDRRKNVLKLSQGEFVTLAKLEAAYSSSPLVRQLFVYGSSERSYLLAVIVPTPDALKKFGVGEAAKAALGESLQKIARDEGLQSYEVPRDFIIETDPFTVENGLLSDARKSLRPKLKEHYGERLEAMYKELADGQANELRDIRRGVQQRPTLETVRRAAAAMLGASAAEIKPDAHFTDLGGDSLSALTFSNFLHDLFEVDVPVGVIVSAANTLGSVAEHIDAQLAGGRARPTFATVHGKGSTTIKASDLTLDKFIDEQTLEAAKHLPKPADPPRTVLLTGANGWLGRFLALEWLERLAPAGGKLITIVRGKDAAQAKARLDAAYESGDPKLAGHYQDLAATTLEVLAGDFSEPRLGLDEATWNRLADEVDFISHPGALVNHVLPYNQLFGPNVAGVAEIIKLAITTRIKPVTYLSTVAVAAGVEPSALDEDGDIRTVSAERSVDEGYANGYGNSKWGGEVLLREAHDRTGLPVRVFRSDMILAHQKYTGQVNATDQFTRLVQSLLATGLAPKSFYELDAQGNRQRAHYDGIPVDFTAESITTLGGDGLEGYRSYNVFNPHRDGVGLDEFVDWLIEAGHPITRIDDYDQWLSRFETSLRGLPESKRQASVLPLLHAFARPGPAVDGSPFRNTVFRTDVQKAKIGAEHDIPHLGKALVLKYADDIKQLGLL
modifications: N-terminal His tag
notes: Segniliparus rotundus carboxylate reductase, N-terminal HIS tagged
[1]
  acceptance of pimelate as substrate (NADPH consumption): accepted pimelate as substrate
[2]
  acceptance of N7-acetyl-7-aminoheptanoate as substrate (NADPH consumption): accepted N7-acetyl-7-aminoheptanoate as substrate
[3]
  acceptance of pimelate semialdehyde as substrate, forming heptanedial (NADPH consumption): accepted pimelate semialdehyde as substrate

Reference: patent US20160201097A1, “Materials and Methods of Producing 7-Carbon Monomers” (INVISTA North America S.á.r.l., priority 2014, published 2016)
